The values that follow come from patent publication US7342091B2, “Soluble cyclic analogues of β amyloid peptide” (Fraunhofer-Gesellschaf zur Forderung der angewandten …, priority 2001, dated 2008).

The nature of data set [1]: CD of peptide alone (β-pleated sheet formation and precipitation). In kind it is physicochemical. To be noted: 10 mM phosphate buffer, 150 mM NaCl, 30% acetonitrile, pH 5.5. The method, then: (§1) The effect of cβ-AP128 (SEQ ID NO: 20) on the aggregation and fibril formation of β-AP (1-28) was tested by CD and EM. A solution of 450 μM β-AP (1-28) (SEQ ID NO: […]) and cβ-AP128 (SEQ ID NO: […]) in 10 mM phosphate buffer, 150 mM NaCl and 30% acetonitrile, pH 5.5, was incubated for several days and tested for fibril formation by EM (FIGS. 2A and 2B).

The nature of data set [2]: Testing of fibril formation by electron microscopy (EM). It is filed as physicochemical. To be noted: 450 μM solution in 10 mM phosphate buffer, 150 mM NaCl, 30% acetonitrile, pH 5.5; for fibril formation (EM): after three days incubation. The method, then:
(§2) The physicochemical properties of cβ-AP were investigated by FT-IR (Fourier-transform infrared spectrometry) and CD (circular dichroism spectropolarimetry). EM (electron microscopy) and AFM (atomic force microscopy) were used to test the properties of fibrils of cβ-AP128. In the EM studies, 450 μM solutions of cβ-AP128 or β-AP (1-28) (SEQ ID NO: 2) or [Lys^17, Asp^21] β-AP(1-28) (SEQ ID NO: 5) in 10 mM phosphate buffer, 150 mM NaCl and 30% acetonitrile, pH 5.5 were initially incubated for several days and tested for fibril formation.

A short description of data set [3]: FT-IR of aged peptide solutions/suspensions (β-pleated sheet conformation). In kind it is physicochemical. The note with it: 450 μM solutions/suspensions, 10 mM phosphate buffer, 150 mM NaCl, 30% acetonitrile, pH 5.5. The protocol:
as §2

Another data set addresses T1, β-AP (1-28) (Homo sapiens, UniProt P05067).
T1 construct: made in house; host or cells: chemical solid-phase peptide synthesis (Boc/Bzl on PAM resin), no expression host
Nature of the data set: Inhibition of the aggregation and fibril formation of β-AP (1-28) by cβ-AP128, tested by CD and EM. In kind it is biochemical. To be noted: 450 μM β-AP (1-28) and cβ-AP128, 10 mM phosphate buffer, 150 mM NaCl, 30% acetonitrile, pH 5.5. The method, then: as §1

Bridges are numbered along the chain shown (N, C = ends). Where no end group is shown, it is not given here.

T1 sequence (P05067 672-699 limits assumed): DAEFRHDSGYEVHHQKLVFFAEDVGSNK

[Lys^17, Asp^21] β-AP (1-28): the “fate after β-pleated sheet formation” value in data set [1] is “precipitated out as insoluble amyloid”. Besides, the “fibril formation (EM)” value in data set [2] is “completely fibrillated”. The “conformation by FT-IR after aging” value in data set [3] is “β-pleated sheet conformation”.

As to “cyclo^17,21 [Lys^17, Asp^21] β-AP (1 to 28) (DAEFRHDSGYEVHHQKKVFFDEDVGSNK; lactam 17-21; listed as Homo sapiens) [cβ-AP128, β-AP (1-28) derivative with lactam bridge between side chains of Lys17 and Asp21]”, in data set [2], the “incubation time over which no fibrils were formed (EM)” value was “more than 30 days”. Besides, the “time without changes of the CD spectra of the mixture with β-AP (1-28)” value with β-AP (1-28) is on record as “more than 1 month”. In addition, the “conformation by FT-IR after aging” value in data set [3] is “prevents the β-pleated sheet conformation”.

As for β-AP (1-28), the “fate after β-pleated sheet formation” value in data set [1] is “precipitated out as insoluble amyloid”. Besides, the “fibril formation (EM)” value in data set [2] was “completely fibrillated”. In addition, the “conformation by FT-IR after aging” value in data set [3] is given as “β-pleated sheet conformation”.
